Results on one protein are retold here after patent US8436159B2, “Glyphosate resistant class I 5-endolpyruvylshikimate-3-phosphate synthase (EPSPS)” (Monsanto Technology LLC, priority 2003, dated 2013).

Substrate in this data set: C=C(OP(=O)(O)O)C(=O)O
The experiment in a line: purified protein, by the assay type. To be noted: other: pH 7.0, 1 mM shikimate-3-phosphate.

As a reminder, the Km is the concentration of substrate that gives half-maximal velocity.

Excerpt: The double variants of the present invention were made using pMON58452 (FIG. 5) as the template. This pMON58452 EPSPS gene template contains the maize EPSPS double variant T102I, P106T (TIPT) that was constructed by mutagenesis of pMON70467 with the mutagenesis primers mEmut-9-U and mEmut-10-L. The various mutagenesis primer sequences were designed and then were synthesized by Invitrogen Corp., Custom Primers and used in combination in a PCR to create the variant EPSPS coding sequences. The PCR was set up in a 50 μl reaction in the following manner: dH2O 38 μl; 2 mM dNTP 1 μL; 10× buffer 5 μL; pMON58452 1 μL (10 ng); primer-U 2 μL; primer-L 2 μL; pfu Turbo enzyme 1 μL. PCR was carried out on a MJ Research PTC-200 thermal cycler using the following program: Step 1—94° C. for 30 seconds; Step 2—94° C. for 30 seconds; Step 3—55° C. for 1 minute; Step 4—68° C. for 14 minute; Step 5—go to step 2, 16 times; Step 6—End. At the end of the PCR, 1 μl of the restriction enzyme DpnI was added to each 50 μl of PCR reaction and the mixture was incubated at 37° C. for 1 hour. […]

B1: maize (Zea mays) class I EPSPS variant TIPC (T102I, P106C), pMON42485 (Zea mays; P106C/T102I) (protein)
chain: AGAEEIVLQPIKEISGTVKLPGSKSLSNRILLLAALSEGTTVVDNLLNSEDVHYMLGALRTLGLSVEADKAAKRAVVVGCGGKFPVEDAKEEVQLFLGNAGIAMRCLTAAVTAAGGNATYVLDGVPRMRERPIGDLVVGLKQLGADVDCFLGTDCPPVRVNGIGGLPGGKVKLSGSISSQYLSALLMAAPLALGDVEIEIIDKLISIPYVEMTLRLMERFGVKAEHSDSWDRFYIKGGQKYKSPKNAYVEGDASSASYFLAGAAITGGTVTVEGCGTTSLQGDVKFAEVLEMMGAKVTWTETSVTVTGPPREPFGRKHLKAIDVNMNKMPDVAMTLAVVALFADGPTAIRDVASWRVKETERMVAIRTELTKLGASVEEGPDYCIITPPEKLNVTAIDTYDDHRMAMAFSLAACAEVPVTIRDPGCTRKTFPDYFDVLSTFVKN
Turning to B1, the Km is 47.0 ± 4.0 µM.
